Experimental data reported in the supplement of paper PMC9233669.
Fewer inactive variants are shown than the library holds.

Tests used:
biotinyl-Trp-oxazolone = assay: self-aminoacylation, catalytic enhancement (BWO) (fold over background); higher = more active; k-Seq, kA / k0A0; sequences stand for … in GGGAAUGGAUCCACAUCUACGAAUUC…UUCACUGCAGACUUGACGAAGCUG
Method in brief: (§1)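 Mutagenized RNA pools with a 21-nt variable region (0.43 μM) were reacted with each biotinyl-aminoacyl-oxazolone at 2–1250 μM for 90 minutes at room temperature, in 50 μL HEPES/NaCl/KCl/MgCl2/CaCl2 buffer containing 5% acetonitrile at pH 6.9–7.0. RNA captured on streptavidin was quantified by triplicate qPCR and by Illumina sequencing. The fraction reacted for each sequence was fit to a pseudo-first-order model with bootstrapping, and catalytic enhancement is the median kA divided by the uncatalyzed rate, taken as the low-activity peak of a bimodal Gaussian fit.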

biotinyl-Met-oxazolone = assay: self-aminoacylation, catalytic enhancement (BMO) (fold over background); higher = more active; k-Seq, kA / k0A0; sequences stand for … in GGGAAUGGAUCCACAUCUACGAAUUC…UUCACUGCAGACUUGACGAAGCUG
Method in brief: as §1

biotinyl-Ile-oxazolone = assay: self-aminoacylation, catalytic enhancement (BIO) (fold over background); higher = more active; k-Seq, kA / k0A0; sequences stand for … in GGGAAUGGAUCCACAUCUACGAAUUC…UUCACUGCAGACUUGACGAAGCUG
Method in brief: as §1

biotinyl-Val-oxazolone = assay: self-aminoacylation, catalytic enhancement (BVO) (fold over background); higher = more active; k-Seq, kA / k0A0; sequences stand for … in GGGAAUGGAUCCACAUCUACGAAUUC…UUCACUGCAGACUUGACGAAGCUG
Method in brief: as §1

biotinyl-Leu-oxazolone = assay: self-aminoacylation, catalytic enhancement (BLO) (fold over background); higher = more active; k-Seq, kA / k0A0; sequences stand for … in GGGAAUGGAUCCACAUCUACGAAUUC…UUCACUGCAGACUUGACGAAGCUG
Method in brief: as §1

biotinyl-Phe-oxazolone = assay: self-aminoacylation, catalytic enhancement (BFO) (fold over background); higher = more active; k-Seq, kA / k0A0; sequences stand for … in GGGAAUGGAUCCACAUCUACGAAUUC…UUCACUGCAGACUUGACGAAGCUG
Method in brief: as §1

Sequence	self-aminoacylation (biotinyl-Trp-oxazolone)	self-aminoacylation (biotinyl-Met-oxazolone)	self-aminoacylation (biotinyl-Ile-oxazolone)	self-aminoacylation (biotinyl-Val-oxazolone)	self-aminoacylation (biotinyl-Leu-oxazolone)	self-aminoacylation (biotinyl-Phe-oxazolone)
CCACACUGCCAGCAAUCGGUC [Fam1B.1 aminoacylation ribozyme variant]	1.39	1.36	1.5	1.58	1.47	2.23
UUGCACCUAGGUCAUCGGGUG [Fam2.2 aminoacylation ribozyme variant]	5.53	3.89	3.11	3.66	4.63	38.8
AUAUACCUAGGUCAUCGGGUG [Fam2.2 aminoacylation ribozyme variant]	4.16	3.97	2.65	2.74	5.38	25.9
AUUACCCUGGUCAUCUAGUAA [Fam2.1 aminoacylation ribozyme variant]	0.903	1.06	1.1	1.08	1.15	1.32
UUACUUCAAACAAUCGGUGUG [Fam1A.1 aminoacylation ribozyme variant]	5.33	1.97	1.51	1.46	2.36	7.15
AUUACCCUGGUCCUCGAGUGA [Fam2.1 aminoacylation ribozyme variant]	3.77	3.43	2.07	2.24	3.55	6.54
AUUACCCGAGUCAUCGAGUGA [Fam2.1 aminoacylation ribozyme variant]	10.2	8.55	4.27	4.68	8.84	62.6
AUUUCCCUGGUCAUCGAGGGA [Fam2.1 aminoacylation ribozyme variant]	1.65	1.44	1.47	1.59	1.83	1.28
CCGUACUUCAAGCAAUCGGUC [Fam1B.1 aminoacylation ribozyme variant]	18.4	1.06	1.16	1.3	1.42	34.5
AUUACCCUGGUCACCGCGUGA [Fam2.1 aminoacylation ribozyme variant]	16.7	14.1	6.07	7.05	16.7	98.1
AAGAUUGCUAAAAGUCGCAAG [Fam3.1 aminoacylation ribozyme variant]	1.56	1.87	1.66	1.61	1.76	3.21
AAGCUUGCUAAUAGUCGCAAC [Fam3.1 aminoacylation ribozyme variant]	1.32	1.28	1.86	1.24	1.44	2.11
CCACACUACAAGGAAUCGGUC [Fam1B.1 aminoacylation ribozyme variant]	0.681	0.84	1.01	1.03	0.947	0.823
AAGUGUGCUAAUGGUCGCAAG [Fam3.1 aminoacylation ribozyme variant]	1.21	0.926	0.864	1.06	0.792	2.15
AUGACCCUGGUUAUCGAGUGA [Fam2.1 aminoacylation ribozyme variant]	8.52	6.78	3.39	3.36	7.14	15.5
CUGCUUCAAAAAAUCGGUCUG [Fam1A.1 aminoacylation ribozyme variant]	14.2	1.25	1.35	0.976	1.59	17.9
CUUCUUCAAACAAUCUGUCUG [Fam1A.1 aminoacylation ribozyme variant]	1.15	0.587	0.768	0.698	0.748	2.27
CCACACUUCAAGCAACCGGUG [Fam1B.1 aminoacylation ribozyme variant]	6.05	5.05	3.92	4	7.08	33.9
CCACAAUUCAAGCAAUCGGUC [Fam1B.1 aminoacylation ribozyme variant]	1.69	0.936	1.17	1.16	0.973	2.8
AUCCACCAAGGUCAUCGGGUG [Fam2.2 aminoacylation ribozyme variant]	7.83	9.18	5.16	6.37	10.1	68.2
AUUUACUUAGGUCAUCGGGUG [Fam2.2 aminoacylation ribozyme variant]	4.45	4.85	2.91	3.18	5.78	32.2
AAGUUUGCCAAUAGUCGCAUG [Fam3.1 aminoacylation ribozyme variant]	1.56	1.79	1.5	1.59	1.45	1.7
CUACUCCAAACAAUCGGACUG [Fam1A.1 aminoacylation ribozyme variant]	0.909	0.762	0.74	0.711	0.6	1.13
AGGUUUGCUAAUAGUCGCAAG [Fam3.1 aminoacylation ribozyme variant]	6.61	1.75	1.56	1.38	1.41	22
CUACUGCCAACAAUCGGUCUG [Fam1A.1 aminoacylation ribozyme variant]	0.531	0.773	0.744	0.744	0.64	0.775
AUUACCCUGGUCAUGGAGUGU [Fam2.1 aminoacylation ribozyme variant]	2.57	2.46	1.72	1.98	2.73	3.83

Sequence	self-aminoacylation (biotinyl-Trp-oxazolone)	self-aminoacylation (biotinyl-Met-oxazolone)	self-aminoacylation (biotinyl-Ile-oxazolone)	self-aminoacylation (biotinyl-Val-oxazolone)	self-aminoacylation (biotinyl-Leu-oxazolone)	self-aminoacylation (biotinyl-Phe-oxazolone)
CUACUUCAAACAAUAGGGCUG [Fam1A.1 aminoacylation ribozyme variant]	0.391	0.557	0.844	0.631	0.523	0.8
CUUACCCUGGUCCUCGAGUGA [Fam2.1 aminoacylation ribozyme variant]	5.89	5.36	2.44	3.36	4.96	28.8
CUGCUUCAAACAAUCGGUUUG [Fam1A.1 aminoacylation ribozyme variant]	84.2	2.38	2.07	2.1	3.93	223
AAGAUUGCUAAUAGUCGAAAG [Fam3.1 aminoacylation ribozyme variant]	1.34	1.03	1.28	0.945	0.966	2.96
CCACACUUCAAGCAAUCGGGG [Fam1B.1 aminoacylation ribozyme variant]	2.3	1.21	1.71	2.19	2.28	1.38
AUUGAUCUAGGUCAUCGGGUG [Fam2.2 aminoacylation ribozyme variant]	7.06	6.53	4.45	3.8	7.89	35.2
CCACACUUCAAGCAAUCCGUA [Fam1B.1 aminoacylation ribozyme variant]	0.837	0.668	0.876	1.04	0.927	0.597
AUUACCUUGGUCAUCGAGAGA [Fam2.1 aminoacylation ribozyme variant]	0.946	0.957	0.924	1.19	0.907	0.809
CUACCUCUAACAAUCGGUCUG [Fam1A.1 aminoacylation ribozyme variant]	0.565	0.915	0.8	0.739	0.919	0.97
AUUACCCUGGUCCUCGAGCGA [Fam2.1 aminoacylation ribozyme variant]	1.68	1.97	1.46	1.77	1.25	3.24
AACUUUCCUAAUAGUCGCAAG [Fam3.1 aminoacylation ribozyme variant]	1.72	1.4	1.29	1.11	1.58	2.29
AUUCACCCAGGUUAUCGGGUG [Fam2.2 aminoacylation ribozyme variant]	4.83	4.79	2.77	3.33	4.62	35.3
AUUACCCAGGUCAUCAAGUGA [Fam2.1 aminoacylation ribozyme variant]	2.63	1.97	1.47	1.59	1.97	3.35
UUUACCCUGGUCAUCGAGUUA [Fam2.1 aminoacylation ribozyme variant]	6.24	7.29	3.03	3.5	6.2	16.7
CUUACCCUUGUCAUCGAGUGA [Fam2.1 aminoacylation ribozyme variant]	5.14	4.62	2.56	3.03	4.14	7.91
AUUCACCGAGAUCAUCGGGUG [Fam2.2 aminoacylation ribozyme variant]	7.09	6.77	3.88	4.27	8.53	49.8
AUUCACCAAGAUCAUCGGGUG [Fam2.2 aminoacylation ribozyme variant]	4.68	4.4	3.1	3.21	5.42	33.2
AUUCCCCUAGGUCAUCGGGUG [Fam2.2 aminoacylation ribozyme variant]	23.2	24.4	14.9	14.9	32.9	196
CUACUUCGAACGAUCGGUCUG [Fam1A.1 aminoacylation ribozyme variant]	0.707	0.779	0.846	1.04	1.06	0.279
AUUACCCCAGUCAUCGAGUGA [Fam2.1 aminoacylation ribozyme variant]	6.76	6.05	2.92	3.25	4.88	24.9
AUUAGCCUGGGCAUCGAGUGA [Fam2.1 aminoacylation ribozyme variant]	7.8	6.92	3.66	3.8	8.51	57.8
CCACACUUCAAGCAAUAGUUC [Fam1B.1 aminoacylation ribozyme variant]	0.431	0.501	0.703	0.644	0.55	1.21
AUUCACGUAGGUGAUCGGGUG [Fam2.2 aminoacylation ribozyme variant]	3.33	3.98	2.91	3.52	4.12	20.3
AUCCACCUAGGGCAUCGGGUG [Fam2.2 aminoacylation ribozyme variant]	4.35	4.46	3.45	4.02	5.15	22.1
CCACCGUUCAAGCAAUCGGUC [Fam1B.1 aminoacylation ribozyme variant]	1.11	0.827	1	1.41	0.983	1.27
